Results taken from publication doi:10.1101/2025.11.19.685371.

Target: pre-formed Aβ oligomers (Aβ42) (UniProt P05067)
Assay: fluorescence correlation spectroscopy

fraction of fluorescently labeled Aβ in oligomers: 59%
Substance: pre-formed Aβ oligomers (Aβ42) (from UniProt P05067 672-713) (complex)
